Source: patent US20100015637A1 (AbbVie / Abbott, published 2010)

T1: CHO-sourced human PlGF-1 (comprising amino acids 1-131; ATCC PTA-8537) (human, UniProt P49763 19-221, glycosylated (CHO-expressed))
T1 sequence: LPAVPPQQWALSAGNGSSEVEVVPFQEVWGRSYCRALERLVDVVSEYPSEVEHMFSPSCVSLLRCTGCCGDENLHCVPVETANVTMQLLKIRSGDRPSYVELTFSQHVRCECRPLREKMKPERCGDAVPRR

T2: CHO human PlGF-1 fragment (comprising amino acids 17-131; ATCC PTA-8540) (human, UniProt P49763 35-221)
T2 sequence: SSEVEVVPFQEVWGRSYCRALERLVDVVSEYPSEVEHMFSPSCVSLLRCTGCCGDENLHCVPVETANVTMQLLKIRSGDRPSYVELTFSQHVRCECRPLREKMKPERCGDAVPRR

T3: CHO human PlGF-1 comprising amino acids 1-137 (human PlGF-1-His (1-131), CHO 6305) (human, UniProt P49763 19-221, N-glycans at N21 (completely glycosylated) and N89 (partially glycosylated))
T3 construct: Mature human PlGF-1 with 6xHis tag (137 amino acids); also called CHO (1-137)
T3 sequence: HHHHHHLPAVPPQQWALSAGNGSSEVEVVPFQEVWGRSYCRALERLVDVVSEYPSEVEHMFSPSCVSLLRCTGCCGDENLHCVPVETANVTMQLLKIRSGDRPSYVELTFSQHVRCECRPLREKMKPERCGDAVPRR

T4: human PlGF-1 comprising amino acids 1-137 produced in human embryonic kidney cells (human, UniProt P49763 19-221)
T4 construct: Mature human PlGF-1 with 6xHis tag; also called HEK (1-137); full length HEK human PlGF-1 (1-137)
T4 sequence: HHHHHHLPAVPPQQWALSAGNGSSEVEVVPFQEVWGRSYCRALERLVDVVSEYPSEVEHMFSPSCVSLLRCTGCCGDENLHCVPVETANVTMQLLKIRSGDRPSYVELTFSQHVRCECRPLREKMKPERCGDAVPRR

T5: human PlGF-1 fragment (comprising amino acids 17-131) produced in human embryonic kidney cells (human, UniProt P49763 35-221)
T5 sequence: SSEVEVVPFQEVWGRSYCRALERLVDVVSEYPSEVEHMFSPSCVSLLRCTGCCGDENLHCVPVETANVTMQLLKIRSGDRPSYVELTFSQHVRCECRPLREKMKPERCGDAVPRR


Tests used:
[1] = biological target: human PlGF-1 comprising amino acids 1-137 produced in human embryonic kidney cells (human) (UniProt P49763); experiment: Format 2 …, capture MAb264, detection Pb264; sFlt-1 4600 pmol/L (ratio 150)
[2] = biological target: human PlGF-1 comprising amino acids 1-137 produced in human embryonic kidney cells (human) (UniProt P49763); experiment: Format 1 …, capture 2-826-335, detection 1-255-713; sFlt-1 920 pmol/L (ratio 30)
[3] = biological target: human PlGF-1 comprising amino acids 1-137 produced in human embryonic kidney cells (human) (UniProt P49763); experiment: Format 2 …, capture MAb264, detection Pb264; sFlt-1 2300 pmol/L (ratio 75)
[4] = biological target: human PlGF-1 comprising amino acids 1-137 produced in human embryonic kidney cells (human) (UniProt P49763); experiment: Format 2 …, capture MAb264, detection Pb264; sFlt-1 77 pmol/L (ratio 2.5)
[5] = biological target: recombinant human PlGF-1 (comprising amino acids 1-131) expressed in E. coli (R&D Systems) (human) (UniProt P49763); experiment: SPR (BIAcore 2000); MAb captured on anti-mouse IgG chip, antigen in solution; 1:1 fit with mass transport
[6] = biological target: T1, CHO-sourced human PlGF-1 (comprising …); experiment: as above
Protocol: (§1) First, a ˜5,500 RU rabbit anti-mouse IgG Capture Biosensor was created by amine-coupling rabbit anti-mouse IgG antibody (BIAcore® International AB, a GE Healthcare company, Uppsala, Sweden) to a CM4 biosensor chip (BIAcore® International AB, a GE Healthcare company, Uppsala, Sweden) via EDC/NHS/Ethanolamine chemistry provided in an Amine Coupling Kit (BIAcore® International AB, a GE Healthcare company, Uppsala, Sweden). Human PlGF-1 monoclonal antibodies and human PlGF-1 antigens were diluted into a running buffer (hereinafter “Running Buffer”) composed of HBS-EP buffer (BIAcore® International AB, a GE Healthcare company, Uppsala, Sweden) spiked with 0.1% BSA and 0.1% CM-Dextran.
(§2) After equilibrating the rabbit anti-mouse IgG Capture Biosensor for 5 minutes at 5 μL/minute with Running Buffer, 5 to 10 μL of human PlGF-1 monoclonal antibody was injected over individual flow cells with one flow cell being left blank as a reference flow cell. The flow cells were washed for 6 minutes at 50 μL/minute with Running Buffer before injecting 150 μL of human PlGF-1 or human PlGF-1 fragment antigen at a […] concentration across the biosensor, which was immediately followed by 15 minutes of Running Buffer. The biosensor was regenerated with one 30 μL injections of 10 mM Glycine pH 1.7 (BIAcore® International AB, a GE Healthcare company, Uppsala, Sweden) at a flow rate of 10 μL/minute.

[7] = biological target: T2, CHO human PlGF-1 fragment (comprising …); experiment: as above
Protocol: as §1, §2

[8] = biological target: T3, CHO human PlGF-1 comprising amino acids …; experiment: … sandwich, capture MAb255, detection MAb826; antigen 60 pg/mL
In short: (§3)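 Human PlGF-1 antigen preparations, including CHO cell-expressed recombinant forms, spanned 0 to 1500 pg/mL in a sandwich immunoassay. A monoclonal anti-human PlGF-1 antibody, immobilized on magnetic microparticles through passive coating and EDAC cross-linking, captured the antigen, and an acridinium ester-labeled monoclonal anti-human PlGF-1 antibody detected it. Chemiluminescent relative light units (RLU) were recorded for every antigen level.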

[9] = biological target: T4, human PlGF-1 comprising amino acids …; experiment: … sandwich, capture MAb255, detection MAb826; antigen 250 pg/mL
In short: as §3

[10] = biological target: T3, CHO human PlGF-1 comprising amino acids …; experiment: as above
In short: as §3

[11] = biological target: T5, human PlGF-1 fragment (comprising amino …); experiment: as above
In short: as §3

[12] = biological target: T2, CHO human PlGF-1 fragment (comprising …); experiment: as above
In short: as §3

Row | Molecule | Kd [5] [nM] | koff [5] [s⁻¹] | kon [5] [M⁻¹ s⁻¹] | Kd [6] [nM] | koff [6] [s⁻¹] | kon [6] [M⁻¹ s⁻¹] | Kd [7] [nM] | koff [7] [s⁻¹] | kon [7] [M⁻¹ s⁻¹] | other results
1 | native sFlt-1, isolated from human placental tissue (from UniProt P17948 27-687) (receptor) |  |  |  |  |  |  |  |  |  | % Inhibition [1]: 96.5%; PlGF-1 Measured [1]: 27.5 pg/mL; % Inhibition [2]: 90.7%; PlGF-1 Measured [2]: 95.1 pg/mL; % Inhibition [3]: 95%; PlGF-1 Measured [3]: 39.7 pg/mL; % Inhibition [4]: 37.2%; PlGF-1 Measured [4]: 494 pg/mL
2 | monoclonal antibody 2-826-335 (produced by murine hybridoma cell line 2-826-335, ATCC PTA-8539) (antibody, mouse IgG1, V domains shown, also called MAb826) VH: QVQLKQSGPGLVQPSQSLSITCTVSGFSLTTYGIHWVRQSPGKGLEWLGVMWSGGDTDYDAAFISRLSISKDNSKSQVFFKMNSLQANDTGIYYCARYRFYGMDYWGQGTSVTVSS VL: AIQMTQSSSSFSVSLGDRVTITCKASEDIYNRFAWYQQKPGNAPRLLISGAASLEAGVPSRFSGSGSGQDYTLSITSLQTEDVATYYCQQYWSTPWTFGGGTKLEIKR | 0.092 | 0.000214 | 2.34e+06 | 0.498 | 0.000325 | 652000 | 0.219 | 0.000291 | 1.33e+06 | 
3 | monoclonal antibody 1-255-713 (produced by murine hybridoma cell line 1-255-713, ATCC PTA-8536) (antibody, mouse IgG2a, V domains shown, also called MAb255) VH: QVHLQQSGAELMKPGASVKISCKATGYTFSSYWIEWVKQRPGHGLEWIGEILPGSVSNNFNEKFKDKATLTADPSSNTAYIQVSSLTSEDSAVYYCARSTGFYYGGNYFDHWGQGTTLAVSS VL: DVVMTQTPLSLPVSPGDQASISCRSSQSLVHSNGHTYLHWYLQKPGQSPKLLIYKVSNRFSGVPDRVSGSGSGTDFTLKISRVEAEDLGVYFCSQSTHVPPTFGGGTKLEIKR | 0.368 | 0.000121 | 329000 | 1.7 | 0.000123 | 73000 | 0.71 | 0.000129 | 182000 | RLU [8]: 42200 RLU; RLU [9]: 367000 RLU; RLU [10]: 153000 RLU; RLU [11]: 207000 RLU; RLU [12]: 144000 RLU
